Results reported in patent US20220195015A1 (published 2022).
Where a chain is given by its changes, count along the chain named.

B1: C577 (antibody, V domains shown)
VH: QVQLVQSGAEVKKPGSSVKVSCKASGDTFSIYAFSWVRQAPGQGLQWMGAIIPLLGTTNYAQKFLGRVTITADESTSTTFMELSSLTSEDTAVYHCATFHVAYGDYIPFDSWGQGTLVIVSS
VL: not shown
B2: C591 (antibody, V domains shown)
VH: QVQLVQSGAEVKKPGASVKVSCKASGYILTDYFIHWVRQAPGQGLEWMGWINPNSGGTNYAQKFQGRVTMTRDTSISTAYMELSRLRSDDTAVYHCARYKGTTVNTNYYYGMDVWGQGTTVTVSS
VL: not shown
B3: C592 (antibody, V domains shown)
VH: B2 VH with I28T, L29F, I34N, Y60S, S77T, A79V, H95Y
VL: SYELTQPPSVSVSPGQTASITCSGDKLRNKYACWYQQKAGQSPMLVIYQDTKRPSGIPERFSGSNSGNTATLTISGTQAMDEADYYCQAWDISTVVFGGGTKLTVL
B4: C571 (antibody, V domains shown)
VH: EVQLVESGGGLIQPGGSLKLSCVVSGFTVSRNYISWVRQAPGKGLEWVSVLFAGGSTFYADSVKGRFAISRDNSNNTLFLQMNSLRVEDTAIYYCARGDGELIFDQWGQGTLVTVSS
VL: QSVLTQPPSVSGAPGQRVTIVCTGTSSNIGAGYDVHWYQQLPGRAPKVLVSGNNIRPSEVPDRFSGSRSGTSASLAITSLQPEDEAQYYCQSYDSNLYAVFGGGTKLTVL
B5: C531 (antibody, V domains shown)
VH: EVQLVESGGGLVQPGRSLRLSCVATGFTFDDFAMHWVRQAPGKGLEWVSGISWNGGIIGYVDSVKGRFTISRDNAKNSLYLQMNSLRPEDTALYYCVKGYRYYYDILTGYYNDAGAFDYWGQGTLVTVSS
VL: DIQSTQSPSFLSASVGDRVAITCRASQGISSYLAWYQQKPGKAPKLLIYPASTLQSGVPSGFSGSGSGTEFTLTISSLQPEDFATYYCQQLNDYPFTFGPGTKVDIK
B6: C527 (antibody, V domains shown)
VH: QVQLVESGGGVVQPGRSLRLSCAASGFTFSSYGMHWVRQAPGKGLEWVALIGYDGTDKYYAENVKGRFTISRDNSKNTLFLQMNSLRGGDTAVYLCARDGIPFRYGMDVWGQGTTVTVSS
VL: DIQMTQSPSTLSASVGDRVTITCRASQSIDIWLAWYQQKPGKAPKFLIHKASTLESGVPSRFSGSGSGTEFTLTISSLQPDDFATYYCQHYHSYSGTFGQGTKVEIK
B7: C567 (antibody, V domains shown)
VH: QVQLQESGPGLVKPSETLSLTCTVSGGSVINGSYYWSWIRQPPGKGLEWIGFVYYSGSTNYNPSLKSRVTISVDTSKNQFSLNLNSVTAADTAVYYCATGSKSSYYFDYWGQGTLVTVSS
VL: QSVLTQPPSVSAAPGQKVTISCSGSSSNIGNNYVSWYQQLPGAAPKLLIYENNMRPSGIPDRFSGSKSGTSATLGITGLQTGDEADYYCGTWDSSLSVPYVFGTGTRVTVL
B8: C576 (antibody, V domains shown)
VH: QVQLVQSGAEVKKPGSSVKVSCKASGGTFSIYAISWVRQAPGQGLEWMGGIIPILGTANYAQKFQGRVTITADESTSTAYMELSSLRSEDTAVYYCASFHVAYGDYIPFDYWGQGTLVTVSS
VL: not shown
B9: C594 (antibody, V domains shown)
VH: QVQLVESGGGVVQPGRSLRLSCAASGFTFSSYGMHWVRQAPGKGLEWVAVISDDGSNKYYADSVKGRFTISRDNSKNTLYLQMNSLRAEDTAVYYCAKSWWLSENWFDPWGQGTLVTVSS
VL: EIVMTQSPATLSVSPGERATLSCRASQSVSSNLAWYQQKPGQAPRLLIYGASTRATGIPARFSGTGSGTEFTLTISSLQSEDFAVYYCQQYNNWPLTFGGGTKVEIK
B10: C595 (antibody, V domains shown)
VH: B9 VH with P14A, Y32F, M34L, S56A, E89D, V93K
VL: B9 VL with S30R, T65S, E70D
B11: C566 (antibody, V domains shown)
VH: QVQLQESGPGLVKSSQTLSLNCSVFGASISSGGYYWTWIRQHPGKGLEWIGYIHYRGTYYNPSLKSRVTMSVDTSKNQFSLKVRSVSAADTAIYYCARAIVVVTLNWFDLWGQGTLVTVSS
VL: NFMLTQPHSVSESPGKTVTISCSGSGGSIASNYVQWYQQRPGSAPTAVIYEDNQRPSGVPDRFSGSIDSSSNSASLTISGLKTEDEADYYCQSYDTSNPVIFGGGTKLTV
B12: C529 (antibody, V domains shown)
VH: EVQLLESGGGLVQPGGSLRLSCAASGFTFNNYAMNWVRQAPGRGLEWVSGISGSGANTYYADSVKGRFTISRDNPKNTLSLQMNSLRAEDTALYYCAKVLSPTYYDSWSGPDAFDFWGQGTMVTVSS
VL: DIQMTQSPSTLSASVGDRVTITCRASQTISPWLAWYQQKPGKAPNLLIYKASSLESGVPSRFSGSGSGTEFTLTISSLQPDDFATYYCQQYNSYSSWTFGQGTKVEIK
B13: C570 (antibody, V domains shown)
VH: QVQLQESGPGLVKPSETLSLTCTVSGASISSYYWSWIRQPPGKGLEWIGYIYYSGSTNYNPSLKSRVTISLDTSKNQFSLQLSSVTAADTAVYYCATYYFDNSGYSYGLDVWGQGTTVTVSS
VL: DIQMTQSPSSLSASVGDRVTIACRASQSISSYLHWYQQQPGKAPKLLIYAVTNLQSGVPSRFSGSGSGTDFTLTISSLQPEDFATYYCQQSYSLPQTFGQGTKVEIK
B14: C569 (antibody, V domains shown)
VH: QVQLVESGGNVVQPGRSLRLSCAASGFTFSNYGMHWIRQAPGKGLEWVAVISYDGSDKYYADSVKGRVTISRDNSKNTLYLQMNSLRAEDTAVYYCAKGGPYGDHVRSDYWGLGTLVTVSS
VL: DIQMTQSPSSLSASVGDRVTITCQASQDISNYLNWYQQKPGKVPKLLIYDASNLETGVPSRFSGSGSGTDFTFTISSLQPEDIATYYCQQFHNLPLTFGQGTKLEIK
B15: C572 (antibody, V domains shown)
VH: EVQLVESGGGLIKPGRSLRLSCTASGFTFGDYAMTWFRQAPGKGLEWVGFIRSKAYGGTTGYAASVKYRFTISRDDSKSIAYLQMDSLKTEDTAVYYCTRWDGWSQHDYWGQGTLVTVSS
VL: DIVMTQSPLSLSVTPGEPASISCRSSQSLLHSNGNNYFDWYLQKPGQSPQLLIYLASNRASGVPDRFSGSGSGTDFTLKISRVEAEDVGVYYCMQVLQIPYTFGQGTKLEI
B16: C580 (antibody, V domains shown)
VH: EVQLVQSGAEVKKAGESLKISCNSSGYSFTNYWIAWVRQVPGKGLEWMGIIYLGDSDTRYSPSFQGRVTISADKSISAAYLHWSSLKASDTAIYYCARGGPPGGVKLELTDFWGQGTLVTVSS
VL: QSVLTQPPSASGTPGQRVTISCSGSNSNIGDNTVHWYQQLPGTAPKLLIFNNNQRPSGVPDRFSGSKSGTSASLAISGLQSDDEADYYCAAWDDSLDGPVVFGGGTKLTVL
B17: C530 (antibody, V domains shown)
VH: QVQLVESGGGVAQPGRSLRLSCAASGFTFSRYGMHWVRQAPGKGLEWVAVIWHDGSDKYCADFVKGRFTISRDNSKNTLYMQMDSLRAEDTAVYYCARGGRPDHETGIAVLGEYYFDSWGQGTLVTVSS
VL: SYELTQPPSVSVSPGQTARITCSGDAFPLQYGYWYQQKPGQAPVLVIYKDKERPSGISERFSGSSSGTTVTLTISGVQAEDEADYYCQSADTNGVVFGGGTSLTVL
B18: C574 (antibody, V domains shown)
VH: QVQLVQSGAEVKKPGASVKVSCKASGYTFTSYGFSWVRQAPGQGLEWLGWISAYNGNTNYAQKLQGRVTMTTDTSTSTAYMELRSLRSDDTAVYYCARAIAVAGTSGEFDYWGQGTLVTVSS
VL: not shown
B19: C568 (antibody, V domains shown)
VH: QVQLVQSGAEVKKPGASVKVSCTASGYTFSSYYIHWVRQAPGQGLEWMGIINPGAGSTSYAQKFQGRVAMTTDTSTRTVYMELSSLRSDDTAVYYCARDEAFLPSAIFVGDYWGQGTLVTVSS
VL: DIQMTQSPSSLSASVGDRVTITCRASQGIRNDLGWYQQKPGKAPKRLIYAASNLQSGVPSRFSGSGSGTEFTLTISSLQPEDFATYYCLQHSTYPHTWTFGQGTKVEIK
B20: C581 (antibody, V domains shown)
VH: EVQLVQSGAEVKKPGESLKISCKGSGYRFTSYWIAWVRQMPGKGLEWMGIIYPGDSDTRYSPSFQGQVTISADQSISTAYLQWSSLKASDTAMYYCARGGPPGGVKLELTDYWGQGALVTVSS
VL: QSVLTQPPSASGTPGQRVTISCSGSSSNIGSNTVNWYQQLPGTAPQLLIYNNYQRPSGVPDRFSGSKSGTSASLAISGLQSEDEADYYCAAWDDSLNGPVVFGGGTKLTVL
B21: C526 (antibody, V domains shown)
VH: QVQLVQSGAEVKKPGASVKVSCKASGHTFTTYYLHWVRQAPGQGLEWMGRIDPSGGSTTYAQKFQGRVTMTRDTSTSTVYMELSSLRSEDTALYYCARGGYCGSTSCSPDDYFDYWGQGTLVTVSS
VL: SYELTQPPSVSVAPGKTARITCGGNNIGSKSVHWYQQKPGQAPVLVIYYDSDRPSGIPERFSGSNSGNTATLTISRVEAGDEADYYCQVWDSSSDHYYVFGTGTKVTVL
B22: C528 (antibody, V domains shown)
VH: EVQLVESGGGLVQPGGSLRLSCAASGFTFRNYDMHWVRQVAGKGLEWVSAIGTSGDTYYPDSVKGRFTISRENAKNSVYLQMNNLRAGDTAVYFCVRDREISGWTGWYFDLWGRGTLVTVSS
VL: DIQMTQSPSSLSASVGDRVTITCRASQTIHNYLNWYQQIPGKAPRLLIYATNTLQSGVPSRFSGSGSGTDFTLTITGLQPEDFATYYCQQSYSTPPITFGQGTRLEIK
B23: C573 (antibody, V domains shown)
VH: QVQLQESGPGLVKPSGTLSLTCAVSGGSISTVNWWSWVRQPPGKGLEWIGEIHHSGNTNHNPSLRSRVTISVDKSKNQFSLKLRSVTAADTAVYYCARDGGRPGDAFDLWGQGTMVTVSS
VL: QSALTQPASVSGSPGQSITISCTGTSSDVGGYNYVSWYQQHPGKVPKVMIYDVSNRPSGISNRFSGSKSGNTASLTISGLQAEDEADYYCNSYRSNSTRVFGTGTKVTV
B24: C565 (antibody, V domains shown)
VH: EVQLVESGGGLIQPGGSLRLSCAASGLIVSSNYMNWVRQAPGKGLEWVSLLYSGGSTYYADSVKGRFTISRDNSKNTLYLQMNSLRPEDTAVYYCARDLSVVGAFDIWGQGTMVTVSS
VL: EIVLTQSPGTLSLSPGERATLSCRASQSLPSTYLAWYQQKRGQAPRLLIYGASSRATGIPDRFSGSGSGTDFTLTISRLEPEDFAVYYCQQYGTSPRVTFGPGTKVDIK
B25: C578 (antibody, V domains shown)
VH: QVQLVESGGGVVQPGRSLRLSCAASGFTFSSSGMHWVRQAPGKGLEWVAIISYDGSNKYYADSVKGRFTISRDNSKNTLSLQMNSLRAEDTAVYYCAKDPLPFRDFFYYYMDVWGKGTTVTVSS
VL: QSALTQPASVSGSPGQSITISCTGTSSDVGGYNYVSWYQQHPGKAPKLMIYDVSNRPSGVSNRFSGSKSGNTASLTISGLQAEDEADYYCSSYTSSSTLGVFGTGTKVTVL

What follows are binders tested against SARS-CoV-2 spike receptor binding domain (RBD), wild type (SARS-CoV-2, UniProt P0DTC2 319-539) (assay: ELISA, RBD protein coated, mAb titrated).

| Binder | EC50 [ng/mL] |
| --- | --- |
| B1 | 1.32 |
| B2 | 3.83 |
| B3 | 6 |
| B4 | 4.62 |
| B5 | 6.84 |
| B6 | 13.4 |
| B7 | 18.9 |
| B8 | 5.29 |
| B9 | 2.63 |
| B10 | 2.04 |
| B11 | 5.88 |
| B12 | 8 |
| B13 | 0.74 |
| B14 | 11.1 |
| B15 | 2.9 |
| B16 | 1.81 |
| B17 | 10.5 |
| B18 | 8.12 |
| B19 | 5.99 |
| B20 | 1.58 |
| B21 | 18.2 |
| B22 | 5.66 |
| B23 | 2.2 |
| B24 | 1.27 |
| B25 | 1.08 |
